Data as given in a protein production outcome set (Wang et al. 2014).

Assay: label from the status in PepcDB records
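Note: failed if final PepcDB status was selected cloned or expressed and not failed if soluble or beyond.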

MADSSNKKKAASHESKKSNMEIMFSGSDSLTKRERRKKKQLIARSVGFALIGIEVIALIIFLAALFKLNMIPAKYMAMLIGILLLITVYNVLSQFTKAHWVGKVLAVLLAVVMFVGSSYIGKANSVISNIAGVTTKTDTFSLVVLATDPATGVEATKNYTFGYNKINNKDMAESLIQEVNTTLGTNVKTRTYDNWTNIINALYNNEVKVIVFNESNRAMLEEQFTDFEEKTKVIYTKTYTTQIKENVVNKNTATESFTIYVSGNDDYGAISANGRSDVNIVATFNPKTRQVLMVSTPRDYWVPVDTLSTDSNGKAVTGYEKLTHAGNYGVDSSISTLESLYGVDVDYYVKVNFTGAVGVIDALGGITINSDVKFTNGEDAAPVAYNFVVGPNECDGEKALAFCRERQAFSDGDNQRGRNQMAAIEGMIDKATSTAILTQYNKVLDAVSGLIATNMPDSAISNLVKAQINDPTGWNIMSYSVSGTGATKTGQLFGIVGMSVIEPDYSTVNTAIELMSKVRNGEVFDIDQFLEDKALESGTTQAR
protein production: failed

MNENHKELISIGLTVSIVIFSLYIVHKFIPSMIWAAIIVIATYPLYTRWRKLFGNKHNTSAFLFTTLMGLLFLIPLSWLIGILIKESQLFINFLQHINKEGGAAPEFFKNIPLVGDDLIQYWDVNIGKPGNIKEFLSNLHVTLTPTSYYIKQIGVNLAHRSFQVGFTLLTLFFFYRDGDKLLLQIQHIGEYCLGDRWFRYSDRLPSALRGTVNGTIVVGIGVGILMGVCYALVGFPAPTLTGFITALAAMIPFVVPVVFIIVALILLSVGSLIGGIIVLVWGTLVMFVADHFVKPVLIGGAIQLPFLAVLFGILGGVETLGLLGLFLGPMVMVLFVTLWQEPQGHKKSSG
protein production: failed

MSLRWQWRIYEEPLQEPLTTAQGVWRSRSGIYLRLEDEQGQVGYGEIAPLPGWGSETLNADIALCQQLPGHLTPEIMATIPEALPAAQFGFATAWQSVGRLPYRVRPWPICALLGSGQAALEQWQQSWQRGQTTFKWKVGVMSPEEEQAILKALLAALPPGAKLRLDANGSWDRATANRWFAWLDRHGNGKIEYVEQPLPPDQWQALLSLAQTVTTAIALDESVVSAAEVQRWVDRGWPGFFVIKTALFGDPDSLSLLLRRGLEPQRLVFSSALEGAIARTAIFHLLETWQPCHALGFGVDRWRSAPLLTTLTAYERLWERLDQGHHHHHH
protein production: not failed

MNEELIKEKNFSDSVLSSYRMSLDHKKLQNKMIDNMLFRDISGGKKRTFVEEVEDNEEKNNKSAQKCIDGNDKNFIESRKKALENFQQNENNYDCTYKTIKKKNISGCNTTTKLKDVNSSEECQLCLMPNSDSLHGNFPPTFYKLTCDHIFHLMCLYETVIRRECRKTCCICHNELSENDKNEIINKVKLEKKENEKKSKLLFKVMKLQAENKDYPRKDICS
protein production: failed

PEEQRQKLPDITAADPLEYKKQLLKLAISRIVFMRRFIADSLYYLPDVFFVTDKDNNIILLNKAAENLTAELGAQYHYRMPISTILNHLHNEEGHRINFDQVRNNEINSQCYAENGRAFDLRIAACRQVINQPDGWLIMLIDISAVKSAEEQRQRILHLLSHDMRSPQISILALIDRFSRTSC
protein production: failed

MSWTVDIPKEVLPDLPPLPEGMQQQFEDTISRDAKQQPTWDRAQAENVRKILESVPPIVVAPEVLELKQKLADVANGKAFLLQGGDCAETFESNTEPHIRANVKTLLQMAVVLTYGASTPVIKMARIAGQYAKPRSSDLDGNGLPNYRGDIVNGVEATPEARRHDPARMIRAYANASAAMNLVRALTSSGTADLYRLSEWNREFVANSPAGARYEALAREIDSGLRFMEACGVSDESLRAADIYCSHEALLVDYERSMLRLATDEEGNEELYDLSAHQLWIGERTRGMDDFHVNFASMISNPIGIKIGPGITPEEAVAYADKLDPNFEPGRLTIVARMGHDKVRSVLPGVIQAVEASGHKVIWQSDPMHGNTFTASNGYKTRHFDKVIDEVQGFFEVHRALGTHPGGIHIEFTGEDVTECLGGAEDITDVDLPGRYESACDPRLNTQQSLELAFLVAEMLRN
protein production: failed

MNQEIAYLHPVKTARALVLVYLCFSVPIVAMGLFVAFIRYGDLPGITVFTALILNALIGFGLLWLGCKAYNWVAARFGGIEVHVRELTPEDRQ
protein production: failed

MLVSLLGILLSVIVGFVVTLISTKWVIGLCKKRGFTGKDINKLTKDDVPVLGGIGIVAGFVAGSFTFLLTSYNLSPGIENVVVSILLSSLIIGFLGLLDDIFNISQATRAFLPIFASIPLILYSVGHTIISIPFLGKVNFGILFYIIILPATLTITANAFNMLEGLNGLGAGMGLIMALALAYIGLKSGGTSFYAGIVSIILASVLFGFLIFNFYPAKTFPGNIGTYFIGSVIGSIGISGYMYTALFFLYLPYVIEFVLKAKTRFKGVSFGKIDDQGYLHWDSKPNSLTHIVMRIGKFKEYHIVLIIWGIEILFAILAVVFQTVTITI
protein production: failed

MSEFHSEISTLSPAPLWQFFDKICSIPHPSKHEEALAQYIINWATEQGFDVRRDPTGNVFIKKPATPGMENKKGVVLQAHIDMVPQKNEDTDHDFTKDPIQPYIDGEWVTAKGTTLGADNGIGMASCLAVLASKDIKHGPIEVLLTIDEEAGMTGAFGLEAGWLEGDILLNTDSEQEGEVYMGCAGGIDGAMTFDIKRDAIPTGFVTRQLTLKGLKGGHSGCDIHTGRGNANKLLGRFLAGHAQELDLRLVEFRGGSLRNAIPREAFVTVAVPAENQEKLAELFNYYTELLKAELGKVETGIVTFNEEIVTESQAFTAADQQRFIAALNACPNGVMRMSDEIEGVVETSLNVGVITTEENKVTVLCLIRSLIDSGRSQVESMLRSVAELAGAQVEFSGAYPGWKPDADSEIMAIFRDMYEGIYGHKPNIMVIHAGLECGLFKEPYPNMDMVSFGPTIKFPHSPDEKVKIDTVQLFWDQMVALLEAIPEKALEHHHHHH
protein production: not failed

MHGSQKDTTFTKIFVGGLPYHTTDASLRKYFEGFGDIEEAVVITDRQTGKSRGYGFVTMADRAAAERACKDPNPIIDGRKANVNLAYLGAKPRSLQTGFAIGV
protein production: not failed

MATITVVKARQIFDSRGNPTVEVDIHTSNGIKVTAAVPSGASTGIYEALELRDGGSDYLGKGVSKAVGNVNNIIGPALIGKDPTQQTAIDNFMVHELDGTQNEWGWCKQKLGANAILAVSLAVCKAGAVVSGIPLYKHIANLAGNPKIVLPVPAFNVINGGSHAGNKLAMQEFMILPVGAASFKEAMKMGVEVYHHLKSVIKKKYGQDATNVGDEGGFAPNIQENKEGLELLKTAIEKAGYTGKVVIGMDVAASEFYSEDKTYDLNFKEENNNGSQKISGDALKDLYKSFVAEYPIVSIEDPFDQDDWEHYAKMTTECGTEVQIVGDDLLVTNPKRVAKAIAEKSCNALLLKVNQIGSVTESIEAVKMSKKAGWGVMTSHRSGETEDTFIADLAVGLSTGQIKTGAPCRSERLAKYNQLLRIEEELGSEAIYAGVNFRKPVEPY
protein production: failed

MSIIDLTKLEQKVATMWDSILTNSPFIHEVLDGKATKALYAIYMTETYHYTKHNAKNQALVGIMGKDLPGKYLSFCFHHAHEEAGHELMALSDIASIGFDREDVLSSKPLPATETLIAYLYWISATGNPVQRLGYSYWAENVYGYIDPVLKAIQSTLDLTPQSMKFFIAHSKIDAKHAEEVNEMLHEVCKTQEDVDSVVAVMENSLVLTARILDDVWKEYQLFQSGASDRYAFLRDNA
protein production: not failed

MDSSLSQKFTLAYASLLGVGGLMGYLKRGSKISLVAGGGSAALFYYVYTELPGNPVLASSIGIVGSAALTGMMGSRYLRTRKVVPAGLVSVVSLVMTGAYLHGLIRSS
protein production: failed

MEFLDWKFIFIIITFAFIGLICIFKRSKIGLTAASVGIIGSLILWGFFKVSIKVRNFLDGVGLSFKDLLNFLFVVITAIIAFLVIFLFLKAFNNFGSKIRKR
protein production: failed

TPAVVERADADSQYEILVGGQRAGLTAYRDLGAQRVFFHTEIDEAFAGQGLASQLVQQALVDVRASGMRIVPVCPYVAKFLKRHDEFADITDPVTPEVLRW
protein production: not failed

MPTTDLRKAQLQIHFCVLLWGITAILGKLITLQALPLVWWRMLIVVVALALWPRVWRGLRGLSGRVVLGYCGIGALVALHWLTFYGAIKLANASVAATCIALAPVFTAVIEPLVTHRPFRPRELLFGLAVLPGVALVVGGVPDGMRAGVVVGAISAVFVGLFGSLNKRMVAHADPLTVTALELGAGTLTLTLLAPAMPLLLPALHGDLLVVPSLHDGVLLLALSLACTLLPFALALVALRHLSAYSVQLVTNLEPVYAIVLAIALLGEQRELTLQFYLGVAIILGAVFLHPVLERRRTVAHPELLGTAEAKNIVD
protein production: failed

MGVTLAKGGNVSLSKAAPNLTQVLVGLGWDARSTTGAPFDLDASALVCSSGRVLGDEWFVFYNQLKSPDGSIEHTGDNLTGEGDGDDESLLVDLSKVPAHCDKIVFPVSIHMADERGQTFGQVSNAFIRVVNQADGQELARYDLSEDASTETAMIFGELYRYQGEWKFRAVGQGYASGLRGIALDFGVNVS
protein production: not failed

MKLTGQAIDGFLRKPDPKIRCVLVYGPDEGLVRERLEQLARTVVADPKDPFRITDLSGDDLRADPARLADEAAALAFGGGRRLVRLRQMTDQHAPRLKAFVEAPVGEALVLVQGGDLTARSALRKLFEGASAAAALPCYADEGRSLETLVRATLAEARLAAAPEVIDYLVANLGGDRGVSRSELAKLVTYCGKATSVSLDDALACVGDSAQIGLDMLTNAVAEGDSATALRALDRLGQEGMATVALLRGLTRHFTRLHLVAGLIAGGTSVDQALAALKPPVMFKLAPRFRSQVQRWSAERLAQALDLLLDAEIDAKSSGLPERALVERLLLRLARGAKTASRLEHHHHHH
protein production: failed

MFYEKIQTPAYILEEDKLRKNCELLASVGEKSGAKVLLALKGFAFSGAMKIVGEYLKGCTCSGLWEAKFAKEYMDKEIHTYSPAFKEDEIGEIASLSHHIVFNSLAQFHKFQAKTQKNSLGLRCNVEFSLAPKELYNPCGRYSRLGIRAKDFENVDLSTIEGLHFHALCEESAGALEAVLKVFEEKFGKWIGQMKWVNFGGGHHITKKGYDVEKLIALCKNFSDKYGVQVYLEPGEAVGWQTGNLVASVVDIIENEKQIAILDTSSEAHMPDTIIMPYTSEVLNARILATRENEKISDLKESEFSYLLTGNTCLAGDVMGEYAFDKKLKIGDKIVFLDQIHYTIVKNTTFNGIRLPNLMLLNAKNELQMIREFSYKDYSLRN
protein production: failed

MMDSCIRIAGIIGESIVDGPGIRLVVFAQGCPHHCPGCHNPETHAYEGGKSVAIAEILQRLAMNPLLDGITLSGGEPFAQAAGFALLAQSARQRGFHVMTYSGYTYEELTASSEQNPAWALLLEQTDLLVDGPFQLAERNLLLPFRGSENQRVIDVQESLRQGKVVLASVLEHHHHHH
protein production: failed

MKGLRRLVLDVLKPHEPKTIVFALKLSELENVDGVNIHLSEIDQATENIKITILGNNLDYEQIKGVIEDLGGVIHSVDEVVAGKIIVESVKTEQDLEHHHHHH
protein production: failed

MILNRQTVALMTAGLLAFNSCSLKQMVKMAKDQELTVTPSPLEVHGDSVAFDISATLPVKMLKKNKIYSVSTFYKSGDNKVELGSFDFVSTDYPDAKTTAPQIKKHQAFAYKPEIGNGDLLAVGTASNLDKTKTKSTEEFPIAKGLITTSRLVKDYSYVAYADHGYNNKEELIASTVNFYFEQGKSVLRSSEMKGQNAKFLDAFITAKHVTRTISVIGQHSPEGTETKNTNLANERSVVIEKYVKARMKHFKQDSLVNTIQFVTKGDIKDFEPMKAEIAKSTKLTPEQKSELLNIIAGSGDFTSKQQQIEKLPYYNKSVLAQLYPSLRTARTEIWTVKPKKTDAQISLLAGQITSGKVSVDTLSVEELGYAGTLTPILSEKAAIYEALAKKTDNWVAYNNLGAVYVEMAKVEVDQNKKTELVNKAINTLEMSIKKQDNGEAHVNLASAYILSGVKTSARDEANKAVASNASDAVKKGANGILGTVDIKDGKYELALQDFSKSNDSIQVKFNTALASLLKKDFNTAKAGFANYTAAAPNDAAGFYLAAVTAARLKDEATLTTNLKKAKQLSPKFGERAVSDMEFYDYWNSDNFKNALK
protein production: failed
